In patent publication US20080057492A1, “Interacting site for gp41 on gp120 of hiv-1” (priority 2002, published 2008):

Legend:
Experiment in all cases: cell-based or functional assay
[1] = biological target: Chimera P/7CD4bs envelope glycoprotein
[2] = biological target: MN-P envelope glycoprotein (neutralization resistant primary clone of the HIV-1 MN strain) (HIV-1 MN strain) (UniProt P05877)
[3] = biological target: Chimera P/7CD4bs/V3 envelope glycoprotein

Row | Substance | fifty percent neutralization concentration (pseudotyped virus) [1] | fifty percent neutralization concentration (pseudotyped virus) [2] | fifty percent neutralization concentration (pseudotyped virus) [3]
1 | monoclonal antibody 4.8d | 60 ng/mL | > 2.5 µg/mL | 20 ng/mL
2 | monoclonal antibody 17b | 480 ng/mL | > 2.5 µg/mL | 210 ng/mL
3 | monoclonal antibody 19b | 60 ng/mL | > 2.5 µg/mL | 16 ng/mL
